Results published in PMC6555819, “Comprehensive study of nuclear receptor DNA binding provides a revised framework for understanding receptor specificity”.

B1: NRC3_wobSeed58_DR2_G18A_o1 (dsDNA)
DNA 1: GCATCGAAAGGTCGTGAAGTGAGTATACAGAAAGGCGCGATTGACAGCGTAGAATGAAGG
DNA 2: CCTTCATTCTACGCTGTCAATCGCGCCTTTCTGTATACTCACTTCACGACCTTTCGATGC
B2: NRC3_wobSeed118_DR4_G15A_o1 (dsDNA)
DNA 1: GCTTACCAAGGTGAACTGAGGTCGTTGATCCAACTCGCGATTGACAGCGTAGAATGAAGG
DNA 2: CCTTCATTCTACGCTGTCAATCGCGAGTTGGATCAACGACCTCAGTTCACCTTGGTAAGC
B3: NRC3_wobSeed5_DR0_G23C_o1 (dsDNA)
DNA 1: GCCCTTACGGGTCAAGGTTATACCACGGGTGGTACGGCGATTGACAGCGTAGAATGAAGG
DNA 2: CCTTCATTCTACGCTGTCAATCGCCGTACCACCCGTGGTATAACCTTGACCCGTAAGGGC
B4: NRC3_wobSeed21_DR0_C21A_o1 (dsDNA)
DNA 1: GCCGTCAAAGTTCAAGGTAAAGTAACAGAAAGCAGCGCGATTGACAGCGTAGAATGAAGG
DNA 2: CCTTCATTCTACGCTGTCAATCGCGCTGCTTTCTGTTACTTTACCTTGAACTTTGACGGC
B5: NRC3_wobSeed4_DR0_T8A_o1 (dsDNA)
DNA 1: GCCCTACAGGGCCAAGGTCATTGATCAGTCAAAGCAGCGATTGACAGCGTAGAATGAAGG
DNA 2: CCTTCATTCTACGCTGTCAATCGCTGCTTTGACTGATCAATGACCTTGGCCCTGTAGGGC
B6: NRC3_wobSeed88_DR3_C21T_o1 (dsDNA)
DNA 1: GCTAGCCTAGGTCATGCGGGTCAGTATAGTGTCGGCGCGATTGACAGCGTAGAATGAAGG
DNA 2: CCTTCATTCTACGCTGTCAATCGCGCCGACACTATACTGACCCGCATGACCTAGGCTAGC
B7: NRC3_wobSeed70_DR2_o1 (dsDNA)
DNA 1: GCGTACCAAGGTGAATAGGTCGTTGATGAGTAGGCGGCGATTGACAGCGTAGAATGAAGG
DNA 2: CCTTCATTCTACGCTGTCAATCGCCGCCTACTCATCAACGACCTATTCACCTTGGTACGC
B8: NRC3_wobSeed2_DR0_A20C_o1 (dsDNA)
DNA 1: GCCCTAGTTGGTCAAGGTCCCACACGCTATAGGTACGCGATTGACAGCGTAGAATGAAGG
DNA 2: CCTTCATTCTACGCTGTCAATCGCGTACCTATAGCGTGTGGGACCTTGACCAACTAGGGC
B9: NRC3_wobSeed42_DR1_G11A_o1 (dsDNA)
DNA 1: GCTATACAGGATCAAAGGCCAGAGTACGAATGTCGAGCGATTGACAGCGTAGAATGAAGG
DNA 2: CCTTCATTCTACGCTGTCAATCGCTCGACATTCGTACTCTGGCCTTTGATCCTGTATAGC
B10: NRC3_wobSeed133_DR5_C13A_o1 (dsDNA)
DNA 1: GCCGTCCAAGGTAAATGCTAGGTCAGTGAAAGCATTGCGATTGACAGCGTAGAATGAAGG
DNA 2: CCTTCATTCTACGCTGTCAATCGCAATGCTTTCACTGACCTAGCATTTACCTTGGACGGC
B11: NRC3_wobSeed133_DR5_T12G_o1 (dsDNA)
DNA 1: GCCGTCCAAGGGCAATGCTAGGTCAGTGAAAGCATTGCGATTGACAGCGTAGAATGAAGG
DNA 2: CCTTCATTCTACGCTGTCAATCGCAATGCTTTCACTGACCTAGCATTGCCCTTGGACGGC
B12: NRC3_wobSeed136_DR5_A9C_o1 (dsDNA)
DNA 1: GCTAGCCTCGGTCATTCAGGGGCCAGTATAGAAAGCGCGATTGACAGCGTAGAATGAAGG
DNA 2: CCTTCATTCTACGCTGTCAATCGCGCTTTCTATACTGGCCCCTGAATGACCGAGGCTAGC
B13: NRC3_wobSeed53_DR2_C13A_o1 (dsDNA)
DNA 1: GCCCTTACGGGTAACGAGGTTATAGCACGACGAGCGGCGATTGACAGCGTAGAATGAAGG
DNA 2: CCTTCATTCTACGCTGTCAATCGCCGCTCGTCGTGCTATAACCTCGTTACCCGTAAGGGC
B14: NRC3_wobSeed116_DR4_C15G_o1 (dsDNA)
DNA 1: GCAGAATGAGGTTAGCAAAGATCAGGGAAACGCTTGGCGATTGACAGCGTAGAATGAAGG
DNA 2: CCTTCATTCTACGCTGTCAATCGCCAAGCGTTTCCCTGATCTTTGCTAACCTCATTCTGC
B15: NRC3_wobSeed50_DR2_G18A_o1 (dsDNA)
DNA 1: GCCCTAGTTGGTCAGGAAGTCACACACCGGATATGAGCGATTGACAGCGTAGAATGAAGG
DNA 2: CCTTCATTCTACGCTGTCAATCGCTCATATCCGGTGTGTGACTTCCTGACCAACTAGGGC
B16: NRC3_wobSeed27_DR1_C20G_o1 (dsDNA)
DNA 1: GCACTCGGAGGACAAAGGTGAGAGCTACGCCAGTGAGCGATTGACAGCGTAGAATGAAGG
DNA 2: CCTTCATTCTACGCTGTCAATCGCTCACTGGCGTAGCTCTCACCTTTGTCCTCCGAGTGC
B17: NRC3_wobSeed21_DR0_C13A_o1 (dsDNA)
DNA 1: GCCGTCAAAGTTAAAGGTAACGTAACAGAAAGCAGCGCGATTGACAGCGTAGAATGAAGG
DNA 2: CCTTCATTCTACGCTGTCAATCGCGCTGCTTTCTGTTACGTTACCTTTAACTTTGACGGC
B18: NRC3_wobSeed113_DR4_G20A_o1 (dsDNA)
DNA 1: GCATATGTAGGTTAGCTGGAGTCATTCAGACTAGGCGCGATTGACAGCGTAGAATGAAGG
DNA 2: CCTTCATTCTACGCTGTCAATCGCGCCTAGTCTGAATGACTCCAGCTAACCTACATATGC
B19: NRC3_wobSeed114_DR4_C13G_o1 (dsDNA)
DNA 1: GCAATACAGGGTGATCGTAGGCCAGAGTACGCACAGGCGATTGACAGCGTAGAATGAAGG
DNA 2: CCTTCATTCTACGCTGTCAATCGCCTGTGCGTACTCTGGCCTACGATCACCCTGTATTGC
B20: NRC3_wobSeed100_DR4_C23G_o1 (dsDNA)
DNA 1: GCCCTACTGGGCCACGAAAGGTGATTGATTCAGTGAGCGATTGACAGCGTAGAATGAAGG
DNA 2: CCTTCATTCTACGCTGTCAATCGCTCACTGAATCAATCACCTTTCGTGGCCCAGTAGGGC
B21: NRC3_wobSeed27_DR1_C20A_o1 (dsDNA)
DNA 1: GCACTCGGAGGACAAAGGTAAGAGCTACGCCAGTGAGCGATTGACAGCGTAGAATGAAGG
DNA 2: CCTTCATTCTACGCTGTCAATCGCTCACTGGCGTAGCTCTTACCTTTGTCCTCCGAGTGC
B22: NRC3_random_hg19_477_o1 (dsDNA)
DNA 1: GCAACAAACTTCCTTGCTCTAGTTCATCAGCAATGAGCGATTGACAGCGTAGAATGAAGG
DNA 2: CCTTCATTCTACGCTGTCAATCGCTCATTGCTGATGAACTAGAGCAAGGAAGTTTGTTGC
B23: NRC3_random_hg19_71_o1 (dsDNA)
DNA 1: GCCATGTCACCTCCCTGAGGTGCAGTTTGCTTCAAGGCGATTGACAGCGTAGAATGAAGG
DNA 2: CCTTCATTCTACGCTGTCAATCGCCTTGAAGCAAACTGCACCTCAGGGAGGTGACATGGC
B24: NRC3_random_hg19_65_o1 (dsDNA)
DNA 1: GCATGGTGATGAAAGCAAAGGAGTAATGTTTCTGTGGCGATTGACAGCGTAGAATGAAGG
DNA 2: CCTTCATTCTACGCTGTCAATCGCCACAGAAACATTACTCCTTTGCTTTCATCACCATGC
B25: NRC3_random_hg19_86_o1 (dsDNA)
DNA 1: GCAAACAAGGAGGAGAGGTGTTCTGGAGAACTGCTTGCGATTGACAGCGTAGAATGAAGG
DNA 2: CCTTCATTCTACGCTGTCAATCGCAAGCAGTTCTCCAGAACACCTCTCCTCCTTGTTTGC
B26: NRC3_random_hg19_61_o1 (dsDNA)
DNA 1: GCGCAGAGGTTGCAATGAGCCAAGATTGTACCACTGGCGATTGACAGCGTAGAATGAAGG
DNA 2: CCTTCATTCTACGCTGTCAATCGCCAGTGGTACAATCTTGGCTCATTGCAACCTCTGCGC
B27: NRC3_random_hg19_472_o1 (dsDNA)
DNA 1: GCTGATGGGCTTCAAGTTGCTAACCCAGGAAATGGAGCGATTGACAGCGTAGAATGAAGG
DNA 2: CCTTCATTCTACGCTGTCAATCGCTCCATTTCCTGGGTTAGCAACTTGAAGCCCATCAGC
B28: NRC3_random_hg19_405_o1 (dsDNA)
DNA 1: GCAGCGCACCAGCATGGCACATGTATACATATGTAAGCGATTGACAGCGTAGAATGAAGG
DNA 2: CCTTCATTCTACGCTGTCAATCGCTTACATATGTATACATGTGCCATGCTGGTGCGCTGC
B29: NRC3_random_hg19_193_o1 (dsDNA)
DNA 1: GCTGGAAGATGAAGAAGAACTATTGCTCGATGGAGAGCGATTGACAGCGTAGAATGAAGG
DNA 2: CCTTCATTCTACGCTGTCAATCGCTCTCCATCGAGCAATAGTTCTTCTTCATCTTCCAGC
B30: NRC3_random_hg19_39_o1 (dsDNA)
DNA 1: GCGGGCAACTCGTTCGACTCAGGGAGCTATGGGTAGGCGATTGACAGCGTAGAATGAAGG
DNA 2: CCTTCATTCTACGCTGTCAATCGCCTACCCATAGCTCCCTGAGTCGAACGAGTTGCCCGC
B31: NRC3_random_hg19_97_o1 (dsDNA)
DNA 1: GCAAAGGCCTGAGAACCAGGACCTCCAGTGTCCTCAGCGATTGACAGCGTAGAATGAAGG
DNA 2: CCTTCATTCTACGCTGTCAATCGCTGAGGACACTGGAGGTCCTGGTTCTCAGGCCTTTGC
B32: NRC3_random_hg19_46_o1 (dsDNA)
DNA 1: GCAGTAATGCCAATGTCATGATGTGGTCCAGGAATGGCGATTGACAGCGTAGAATGAAGG
DNA 2: CCTTCATTCTACGCTGTCAATCGCCATTCCTGGACCACATCATGACATTGGCATTACTGC
B33: NRC3_random_hg19_122_o1 (dsDNA)
DNA 1: GCTGGCAATGGCTGGACCACTCCAAGAACTGTGTGGGCGATTGACAGCGTAGAATGAAGG
DNA 2: CCTTCATTCTACGCTGTCAATCGCCCACACAGTTCTTGGAGTGGTCCAGCCATTGCCAGC

Biological target: LXRb:RXRa (Homo sapiens, UniProt P55055;P19793 full;full)
Sequence (P55055 whole entry, chain 1 of 2): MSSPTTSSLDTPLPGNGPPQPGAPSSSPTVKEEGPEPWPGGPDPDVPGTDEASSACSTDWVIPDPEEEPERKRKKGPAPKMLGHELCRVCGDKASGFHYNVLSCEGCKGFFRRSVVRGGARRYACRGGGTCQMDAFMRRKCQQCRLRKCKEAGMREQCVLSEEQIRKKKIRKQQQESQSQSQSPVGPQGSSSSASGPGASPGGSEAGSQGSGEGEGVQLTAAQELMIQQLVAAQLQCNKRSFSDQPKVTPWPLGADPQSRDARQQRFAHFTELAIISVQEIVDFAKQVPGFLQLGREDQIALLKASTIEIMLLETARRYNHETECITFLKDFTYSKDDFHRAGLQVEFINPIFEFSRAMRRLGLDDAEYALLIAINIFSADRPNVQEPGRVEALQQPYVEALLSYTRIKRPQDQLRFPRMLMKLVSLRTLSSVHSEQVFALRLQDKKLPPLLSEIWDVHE
Sequence (P19793 whole entry, chain 2 of 2): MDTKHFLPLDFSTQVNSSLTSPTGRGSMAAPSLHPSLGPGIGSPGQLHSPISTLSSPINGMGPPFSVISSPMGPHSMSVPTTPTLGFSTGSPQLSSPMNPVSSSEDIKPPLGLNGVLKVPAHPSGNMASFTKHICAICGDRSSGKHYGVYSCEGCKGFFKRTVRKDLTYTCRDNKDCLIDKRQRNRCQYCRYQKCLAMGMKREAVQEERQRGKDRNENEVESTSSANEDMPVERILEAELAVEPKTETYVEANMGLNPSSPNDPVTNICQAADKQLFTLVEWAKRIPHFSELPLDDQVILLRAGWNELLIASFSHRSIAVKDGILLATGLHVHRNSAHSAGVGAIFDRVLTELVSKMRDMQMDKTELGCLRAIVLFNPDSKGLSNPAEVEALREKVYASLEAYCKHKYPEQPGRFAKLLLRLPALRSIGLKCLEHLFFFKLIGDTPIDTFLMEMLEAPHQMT
Assay: no ligand; PBM; 270 nM : 90 nM RXRa; PBS pH 7.4, 2% milk, 0.02% Triton X-100, 1 mM DTT, BSA, 0.4 mg/ml salmon testes DNA
Details: tags: His kept;His cleaved; copies: 1;1; label: surface-attached array probe
Procedure, shortened: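 Binding z-scores take random background probes as their reference. They come from custom Agilent 4×180K protein-binding microarrays incubated 1 h with ligand-free nuclear receptor dimers, with antibodies against each partner (one per run) detecting binding. Scanned fluorescence was regression-normalized.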

Binder | binding signal
B1 | 3.09 PBM z-score against 500 random probes
B2 | 3.08 PBM z-score against 500 random probes
B3 | 3.06 PBM z-score against 500 random probes
B4 | 3.04 PBM z-score against 500 random probes
B5 | 3.02 PBM z-score against 500 random probes
B6 | 3 PBM z-score against 500 random probes
B7 | 0.5 PBM z-score against 500 random probes
B8 | 0.48 PBM z-score against 500 random probes
B9 | 0.47 PBM z-score against 500 random probes
B10 | 0.46 PBM z-score against 500 random probes
B11 | 0.44 PBM z-score against 500 random probes
B12 | 0.42 PBM z-score against 500 random probes
B13 | 0.41 PBM z-score against 500 random probes
B14 | 0.41 PBM z-score against 500 random probes
B15 | 0.38 PBM z-score against 500 random probes
B16 | 0.32 PBM z-score against 500 random probes
B17 | 0.26 PBM z-score against 500 random probes

Binder | binding signal
B18 | 0.16 PBM z-score against 500 random probes
B19 | 0.1 PBM z-score against 500 random probes
B20 | -0.2 PBM z-score against 500 random probes
B21 | -0.49 PBM z-score against 500 random probes
B22 | 0.49 PBM z-score against 500 random probes
B23 | 0.34 PBM z-score against 500 random probes
B24 | 0.22 PBM z-score against 500 random probes
B25 | 0.18 PBM z-score against 500 random probes
B26 | -0.15 PBM z-score against 500 random probes
B27 | -0.26 PBM z-score against 500 random probes
B28 | -0.44 PBM z-score against 500 random probes
B29 | -0.54 PBM z-score against 500 random probes
B30 | -0.61 PBM z-score against 500 random probes
B31 | -0.68 PBM z-score against 500 random probes
B32 | -0.76 PBM z-score against 500 random probes
B33 | -0.85 PBM z-score against 500 random probes
